From PMC12669651 come the findings set out here.

For series [1] the following is noted: O-GlcNAc at S296.
Series [2] can be described thus: cycloheximide chase, Western blot, Foxo3-KO BMSCs. To be noted: glycan lost; control: wild-type Foxo3. (In general: In western blotting, separated proteins are transferred to a membrane and probed.)
A short description of the next series: ROS detection in BMSCs. To be noted: glycan lost; control: wild-type Foxo3.

B1: FOXO3: S296V (protein)
parent chain: MAEAPASPVPLSPLEVELDPEFEPQSRPRSCTWPLQRPELQASPAKPSGETAADSMIPEEDDDEDDEDGGGRASSAMVIGGGVSSTLGSGLLLEDSAMLLAPGGQDLGSGPASAAGALSGGTPTQLQPQQPLPQPQPGAAGGSGQPRKCSSRRNAWGNLSYADLITRAIESSPDKRLTLSQIYEWMVRCVPYFKDKGDSNSSAGWKNSIRHNLSLHSRFMRVQNEGTGKSSWWIINPDGGKSGKAPRRRAVSMDNSNKYTKSRGRAAKKKAALQAAPESADDSPSQLSKWPGSPTSRSSDELDAWTDFRSRTNSNASTVSGRLSPILASTELDDVQDDDGPLSPMLYSSSASLSPSVSKPCTVELPRLTDMAGTMNLNDGLAENLMDDLLDNIALPPSQPSPPGGLMQRGSSFPYTAKSSGLGSPTGSFNSTVFGPSSLNSLRQSPMQTIQENRPATFSSVSHYGNQTLQDLLASDSLSHSDVMMTQSDPLMSQASTAVSAQNARRNVMLRNDPMMSFAAQPTQGSLVNQNLLHHQHQTQGALGGSRALSNSVSNMGLSDSSSLGSAKHQQQSPASQSMQTLSDSLSGSSLYSASANLPVMGHDKFPSDLDLDMFNGSLECDMESIIRSELMDADGLDFNFDSLISTQNVVGLNVGNFTGAKQASSQSWVPG
As to B1, the degradation_or_half_life result in series [1] is given as “decreases, half-life from 24 hours to 12 hours”. Further, in series [2], the “degradation_or_half_life, half_life” value is given as “decreases, 12 vs 24”. Moreover, in “ROS detection in BMSCs”, the “other: cellular ROS level” value is listed as “increases”.
